Data reported in patent US20230414780A1.

Legend:
[1] = target: murine TfR expressed by murine neuroblastoma Neuro-2a cells (mouse) (UniProt Q62351); assay: competition with C5-Alexa680 (100 nM) on living Neuro-2a cells, 3 hrs at 37 C, flow cytometry; Ki/app, mean ± SD
[2] = target: murine TfR expressed by murine neuroblastoma Neuro-2a cells (mouse) (UniProt Q62351); assay: cell-based or functional assay

Sequence of murine TfR expressed by murine neuroblastoma Neuro-2a cells (mouse) (Q62351 whole entry): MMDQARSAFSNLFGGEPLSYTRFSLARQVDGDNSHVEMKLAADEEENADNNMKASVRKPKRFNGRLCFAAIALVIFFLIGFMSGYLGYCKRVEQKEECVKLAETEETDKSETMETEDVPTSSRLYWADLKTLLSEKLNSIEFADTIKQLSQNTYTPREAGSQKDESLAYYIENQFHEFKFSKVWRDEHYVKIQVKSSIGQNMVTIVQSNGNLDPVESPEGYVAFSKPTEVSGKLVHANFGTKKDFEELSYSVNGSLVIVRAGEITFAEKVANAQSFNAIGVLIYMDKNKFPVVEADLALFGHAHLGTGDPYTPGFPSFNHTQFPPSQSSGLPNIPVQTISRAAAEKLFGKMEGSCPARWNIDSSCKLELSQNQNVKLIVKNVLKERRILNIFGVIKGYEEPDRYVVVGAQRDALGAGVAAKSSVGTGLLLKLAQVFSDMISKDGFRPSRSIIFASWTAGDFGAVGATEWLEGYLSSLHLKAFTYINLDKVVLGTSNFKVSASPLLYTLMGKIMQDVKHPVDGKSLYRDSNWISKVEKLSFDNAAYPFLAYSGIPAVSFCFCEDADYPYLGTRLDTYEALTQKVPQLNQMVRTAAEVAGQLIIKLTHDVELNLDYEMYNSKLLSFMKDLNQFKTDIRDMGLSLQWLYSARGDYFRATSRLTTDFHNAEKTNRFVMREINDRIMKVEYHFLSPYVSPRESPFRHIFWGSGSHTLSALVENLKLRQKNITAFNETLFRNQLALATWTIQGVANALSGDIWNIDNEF

- Ki [1]: 494 nM
- IC50 of mSOD1 mRNA downregulation, free uptake on Neuro-2a cells [2]: 8.7 nM
B1: C5-hFc-siSOD1m-5'VP (Fc fusion, part only; not given: Fc knob and hole arms, part only)
chain, part: EVQLVESGGGVVQPGGSLKLSCVASGTDFSINFIRWYRQAPGKQREFVAGFTATGNTNYADSMKGRFTISRDNTKNAVYLQIDSLKPEDTAVYYCYMLDKWGQGTQVTVSS
